Experimental findings from patent US20240024520A1, “AUTONOMOUS KNOB DOMAIN PEPTIDES” (UCB BIOPHARMA SRL, priority 2020, published 2024) are described below.

Read-outs that look alike come from different tables or passages of the source. Bridge positions count the residues as written; N and C are the ends. Peptide text beside a SMILES is read from it.

Common to all, as to assay type: binding
Experiment [1] has as its target T1, C5 (Homo sapiens, UniProt P01031). Description: Monoclonal phage screening ELISA, human C5. As for the experimental part:
(§1) For the C5 libraries, a single round of enrichment was performed with either human or rat C5 protein. […] Phage were blocked for 30 minutes. Biotinylated antigen was added to the blocked phage at a concentration of 100 nM and incubated at room temperature with mixing.
(§2) Colonies were picked into a 96-well culture plate containing selective medium 2TY supplemented with 1% Glucose and 100 μg/ml Carbenicillin and was incubated at 37° C. until wells reached mid-log phase of growth prior to addition of M13K07 helper phage. The block was incubated without shaking for 1 hour to achieve infection and phage production using continued culture in selective media supplemented with 50 μg/ml Kanamycin and 100 μg/ml Carbenicillin.
Binding to antigen was assessed by monoclonal phage ELISA, 96-well flat bottom Nunc MaxiSorp plates (Thermofisher) were coated with a 2.5 μg/ml solution of human, mouse, or rat serum albumin, human C5 or mouse C5 diluted with PBS, and left overnight at 4° C. Negative control plate and Anti-myc tag plate were also prepared.
(§3) Monoclonal phage rescue supernatants were blocked with an equal volume of a 2% milk (w/v) in PBS, for serum albumin proteins, or 2% BSA and 2% milk (w/v) in PBS solution. The coating solution was removed from coated Nunc plates and each plate was blocked with 1% BSA in PBS (for C5 libraries) or 1% milk powder (for albumin library). Both phage and Nunc plates were blocked for 1 hour at room temperature. Nunc plates were washed using a 96-well microplate washer (BioTek) with a PBS solution contain 0.1% Tween20 (Sigma Aldrich). 100 of blocked phage solution was added to each well of Nunc MaxiSorp plate and left shaking at room temperature for 1 hour. Plates were washed and dried as previously described. 100 of an Anti-M13-Horse radish peroxidase conjugated antibody (GE Healthcare) diluted (1:5,000) in a 1% BSA or milk solution was added to each well and left shaking at room temperature for 1 hour. Plates were washed again and 50 μL of TMB solution (Merck Millipore) was added to each well. Plates were left shaking for 10 minutes. Absorbance was measured at 630 nm and 490 nm. Binding signals were obtained where Absorbance at 630 nm was >3-times the signal upon irrelevant antigen.
(§4) By monoclonal phage ELISA the following ultralong CDR-H3 sequences were identified as binders (OD>0.2 AU): […]

Experiment [2] concerns the target rat C5 protein (Rattus norvegicus, UniProt P08650). Description: Monoclonal phage screening ELISA, rat C5. The procedure: as §1, §2
[…] Negative control plate and Anti-myc tag plate were also prepared.
as §3, §4
For orientation: In an ELISA, binding on a coated surface is turned into a signal by an enzyme label.

For experiment [3], the target named is T1, C5. Briefly: Biacore multi-cycle kinetics on human C5. Particulars: for mean stoichiometric ratio: measured Rmax divided by theoretical Rmax; for koff: read-out: mean Koff; for kon: read-out: mean Kon. The procedure: Binding of knob domain peptides to human C5 was measured by SPR, using a multi-cycle kinetics method as follows:
Kinetics were measured using a Biacore 8K (GE Healthcare) with a CM5 chip, which was prepared as follows: EDC/NHS was mixed at 1:1 ratio (flow rate, 10 μL/min; contact time, 30 seconds), human C5 protein at 1 μg/mL in pH 4.5 sodium-acetate buffer, were injected over flow cell one only (flow rate, 10 μL/min; contact time, 60 seconds). Final immobilization levels in the range of 2000-3000 response units (RU) were obtained, to yield theoretical Rmax values of ˜50-60 RU. Serial dilutions of peptide were prepared in HBS-EP buffer and injected (flow rate, 30 μL/min; contact time, 240 seconds; dissociation time, 6000 seconds). After each injection, the surface was regenerated with two sequential injections of 2M MgCl2 (flow rate, […]; contact time, 30 seconds). Binding to the reference surface was subtracted, and the data were fitted to a single site binding model, using Biacore evaluation software.
For orientation: In SPR one partner is held on a chip, and binding of the other changes the refractive index at the surface.

[4] abbreviates: anti-C5 ultralong CDR-H3, binder = OD>0.2 AU.
The mark [5] stands for this setting: knob domain of the anti-C5 ultralong CDR-H3.
The mark [6] stands for this setting: multi-cycle kinetics, n = 3 experiments.

Chain of rat C5 protein (P08650 19-674 limits assumed): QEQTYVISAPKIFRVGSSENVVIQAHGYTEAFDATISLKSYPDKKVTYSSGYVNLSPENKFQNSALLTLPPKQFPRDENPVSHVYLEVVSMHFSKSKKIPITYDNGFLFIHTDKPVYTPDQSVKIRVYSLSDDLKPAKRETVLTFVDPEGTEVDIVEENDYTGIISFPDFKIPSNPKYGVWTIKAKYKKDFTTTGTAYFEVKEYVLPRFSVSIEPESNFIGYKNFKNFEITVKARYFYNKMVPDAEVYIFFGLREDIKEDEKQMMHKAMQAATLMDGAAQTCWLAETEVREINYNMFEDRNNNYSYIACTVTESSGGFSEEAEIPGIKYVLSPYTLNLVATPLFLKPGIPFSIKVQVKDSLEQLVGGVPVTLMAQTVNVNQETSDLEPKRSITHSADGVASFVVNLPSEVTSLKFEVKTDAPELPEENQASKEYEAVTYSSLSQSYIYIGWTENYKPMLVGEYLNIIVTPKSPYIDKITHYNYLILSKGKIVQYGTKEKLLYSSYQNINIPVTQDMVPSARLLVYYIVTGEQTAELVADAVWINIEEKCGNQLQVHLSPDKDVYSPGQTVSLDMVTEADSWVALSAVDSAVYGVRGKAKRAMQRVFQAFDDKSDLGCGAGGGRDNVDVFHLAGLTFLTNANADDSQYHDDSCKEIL
Chain of rat C5 protein (P08650 679-1681 limits assumed): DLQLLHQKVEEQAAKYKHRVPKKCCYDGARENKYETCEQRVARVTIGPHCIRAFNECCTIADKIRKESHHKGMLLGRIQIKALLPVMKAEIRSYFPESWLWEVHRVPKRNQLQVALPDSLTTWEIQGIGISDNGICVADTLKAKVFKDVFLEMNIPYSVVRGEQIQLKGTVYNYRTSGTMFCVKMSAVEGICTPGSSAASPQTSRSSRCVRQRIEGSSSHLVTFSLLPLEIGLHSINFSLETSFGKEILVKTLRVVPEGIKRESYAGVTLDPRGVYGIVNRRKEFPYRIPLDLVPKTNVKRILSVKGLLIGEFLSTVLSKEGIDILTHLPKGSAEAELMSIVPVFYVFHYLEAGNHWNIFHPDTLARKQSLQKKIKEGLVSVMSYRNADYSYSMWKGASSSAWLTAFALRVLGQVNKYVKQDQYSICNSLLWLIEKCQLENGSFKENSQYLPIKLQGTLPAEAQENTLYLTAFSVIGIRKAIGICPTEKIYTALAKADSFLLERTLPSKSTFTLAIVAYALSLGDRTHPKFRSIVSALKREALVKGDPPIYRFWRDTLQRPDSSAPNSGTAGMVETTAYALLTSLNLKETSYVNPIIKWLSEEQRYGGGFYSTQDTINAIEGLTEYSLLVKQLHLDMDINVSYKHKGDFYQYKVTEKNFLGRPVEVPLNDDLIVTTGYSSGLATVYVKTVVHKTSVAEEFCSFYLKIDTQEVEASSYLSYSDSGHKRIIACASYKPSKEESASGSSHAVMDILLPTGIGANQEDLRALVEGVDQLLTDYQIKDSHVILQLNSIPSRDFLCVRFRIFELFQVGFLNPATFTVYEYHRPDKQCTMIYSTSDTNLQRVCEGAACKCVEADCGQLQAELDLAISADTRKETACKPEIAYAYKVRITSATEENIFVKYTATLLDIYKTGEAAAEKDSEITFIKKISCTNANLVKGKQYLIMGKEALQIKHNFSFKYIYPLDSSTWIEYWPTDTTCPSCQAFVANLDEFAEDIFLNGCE
T1 sequence (P01031 19-1676): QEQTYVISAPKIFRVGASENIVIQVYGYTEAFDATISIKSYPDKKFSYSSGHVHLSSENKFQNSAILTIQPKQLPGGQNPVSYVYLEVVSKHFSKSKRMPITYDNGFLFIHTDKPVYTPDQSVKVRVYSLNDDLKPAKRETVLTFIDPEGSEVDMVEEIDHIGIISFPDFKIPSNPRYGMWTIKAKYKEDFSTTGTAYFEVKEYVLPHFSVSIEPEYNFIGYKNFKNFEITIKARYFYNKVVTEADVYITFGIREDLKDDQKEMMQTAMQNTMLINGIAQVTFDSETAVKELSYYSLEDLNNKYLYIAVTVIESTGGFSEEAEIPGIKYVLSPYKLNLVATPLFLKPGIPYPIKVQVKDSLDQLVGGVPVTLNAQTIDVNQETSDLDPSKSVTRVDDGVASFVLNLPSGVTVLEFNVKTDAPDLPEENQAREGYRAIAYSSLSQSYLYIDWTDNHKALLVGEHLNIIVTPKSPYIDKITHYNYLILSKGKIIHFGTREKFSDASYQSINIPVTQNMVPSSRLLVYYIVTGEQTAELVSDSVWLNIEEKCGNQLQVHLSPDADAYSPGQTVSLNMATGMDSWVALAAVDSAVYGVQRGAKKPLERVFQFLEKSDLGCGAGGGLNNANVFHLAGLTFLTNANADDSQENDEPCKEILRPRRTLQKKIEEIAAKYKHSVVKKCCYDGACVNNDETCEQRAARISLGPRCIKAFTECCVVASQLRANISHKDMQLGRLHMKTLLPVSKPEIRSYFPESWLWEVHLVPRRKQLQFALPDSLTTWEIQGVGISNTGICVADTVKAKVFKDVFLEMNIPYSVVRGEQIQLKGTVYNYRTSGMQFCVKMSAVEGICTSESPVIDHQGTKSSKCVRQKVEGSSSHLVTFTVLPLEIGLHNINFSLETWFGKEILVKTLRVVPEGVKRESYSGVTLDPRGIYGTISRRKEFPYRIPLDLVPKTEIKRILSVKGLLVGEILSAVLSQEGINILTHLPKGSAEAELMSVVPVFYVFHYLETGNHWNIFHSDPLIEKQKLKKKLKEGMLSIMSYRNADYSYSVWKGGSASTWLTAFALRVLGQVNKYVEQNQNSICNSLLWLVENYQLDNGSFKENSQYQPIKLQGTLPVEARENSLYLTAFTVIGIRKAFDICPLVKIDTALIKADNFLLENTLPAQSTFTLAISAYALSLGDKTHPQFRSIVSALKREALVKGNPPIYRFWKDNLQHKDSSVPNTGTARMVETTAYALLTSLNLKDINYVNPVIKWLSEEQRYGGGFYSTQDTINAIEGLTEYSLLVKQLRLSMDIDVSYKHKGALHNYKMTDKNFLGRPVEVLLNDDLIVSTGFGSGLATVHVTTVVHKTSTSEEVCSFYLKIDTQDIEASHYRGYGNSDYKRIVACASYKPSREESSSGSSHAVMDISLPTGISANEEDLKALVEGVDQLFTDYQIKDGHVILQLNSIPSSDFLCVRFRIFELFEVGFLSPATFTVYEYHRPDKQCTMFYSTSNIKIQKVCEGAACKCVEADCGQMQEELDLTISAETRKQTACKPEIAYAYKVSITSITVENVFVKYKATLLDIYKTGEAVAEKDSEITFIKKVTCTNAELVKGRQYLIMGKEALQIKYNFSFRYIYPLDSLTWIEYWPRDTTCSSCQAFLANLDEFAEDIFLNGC

Regarding “555 (TTVHQKTKKTCPRGYHYNDRCEFFNTCRVEECCLNGVVNTYGICEYEGGSATYTYEWYVD; Anti-C5 ultralong CDR-H3) [compound 555]”, the Specificity result in experiment [1] (setting [4]) was “Human and Rat”; in experiment [2] (setting [4]) it was “Human and Rat”.
“598 (SCPDGYGYGDGYCYDSGCSASDCYGVDALYSYGHCGCSIYTERPR; Anti-C5 ultralong CDR-H3 knob domain) [compound 598]”: the Specificity entry in experiment [1] (setting [5]) is “Human and Rat”; in experiment [2] (setting [5]) it was “Human and Rat”.
Regarding “597 (TCPRGYHYNDRCDFFNTCRVEECCLNGVVNTYGICEYEGGSAT; Anti-C5 ultralong CDR-H3 knob domain) [compound 597]”, the Specificity entry was “Human and Rat” in experiment [1] (setting [5]); “Human and Rat” in experiment [2] (setting [5]).
“596 (TCPRGYHYNDRCEFFNTCRVEECCLNGVVNTYGICEYEGGSAT; Anti-C5 ultralong CDR-H3 knob domain) [compound 596]”: the Specificity entry was “Human and Rat” in experiment [1] (setting [5]); “Human and Rat” in experiment [2] (setting [5]).
Take “558 (TTVHQKTKKSCPLGYAINDRCDDLKTCGPDECCLNGVVNAYGICEYEGESATHTYELYVE; Anti-C5 ultralong CDR-H3) [compound 558]”: the Specificity result in experiment [1] (setting [4]) is “Human and Rat”; in experiment [2] (setting [4]), “Human and Rat”.
With “557 (TTVHLKTKKSCPLGYAINDRCDDLKTCGPDECCLNGVVNAYGICEYEGESATHTYEWYVD; Anti-C5 ultralong CDR-H3) [compound 557]”, the Specificity result in experiment [1] (setting [4]) was “Human and Rat”; in experiment [2] (setting [4]), “Human and Rat”.
For the molecule “594 (TCPLGYDLNYRCDHFNTCRVEECCKNGVVNAYGICEYAGGSAT; Anti-C5 ultralong CDR-H3 knob domain) [compound 594]”, the Specificity entry in experiment [1] (setting [5]) was “Human and Rat”; in experiment [2] (setting [5]), “Human and Rat”.
In the case of `CC[C@H](C)[C@@H]1NC(=O)[C@H](C)NC(=O)[C@H](C(C)C)NC(=O)CNC(=O)[C@@H]2CSSC[C@@H](C(=O)NCC(=O)N[C@@H](Cc3c[nH]cn3)C(=O)N[C@@H](Cc3ccccc3)C(=O)N[C@@H](CC(C)C)C(=O)N[C@@H](CC(N)=O)C(=O)N[C@@H](CO)C(=O)NCC(=O)N3CCC[C@H]3C(=O)N[C@@H](CC(N)=O)C(=O)N[C@H](C(=O)N[C@@H](CO)C(=O)N3CCC[C@H]3C(=O)N[C@@H](Cc3ccc(O)cc3)C(=O)N[C@H](C(=O)N[C@@H](CO)C(=O)N[C@H](C(=O)O)[C@@H](C)O)C(C)C)[C@@H](C)CC)NC(=O)CNC(=O)[C@H](Cc3c[nH]c4ccccc34)NC(=O)[C@H](CCCNC(=N)N)NC(=O)CNC(=O)[C@H](CSSC[C@H](NC(=O)[C@@H](N)[C@@H](C)O)C(=O)N3CCC[C@H]3C(=O)N[C@@H](CCC(=O)O)C(=O)NCC(=O)N[C@@H](C)C(=O)N[C@@H](CO)C(=O)N[C@@H](CCC(=O)O)C(=O)N2)NC(=O)[C@H](CCC(=O)O)NC(=O)[C@H](Cc2ccc(O)cc2)NC(=O)CNC(=O)[C@H](Cc2ccc(O)cc2)NC1=O` [K92chemFE W6A] (H-TCPEGASECGVAIYGYECGRWGCGHFLNSGPNISPYVST-OH; disulfide 2-18, 9-23; N-terminus assumed), in experiment [3] (n = 3 experiments), the mean stoichiometric ratio is reported as 0.60. Besides, in experiment [3] (setting [6]), the koff was determined as 0.00157 s⁻¹ and the kon is 7980 M⁻¹ s⁻¹.
As for “551 (TTVHQRTKKTCPLGYDLNYRCDHFNTCRVEECCKNGVVNAYGICEYAGGSATYTYEWYVD; Anti-C5 ultralong CDR-H3) [compound 551]”, the Specificity entry was “Human and Rat” in experiment [1] (setting [4]); “Human and Rat” in experiment [2] (setting [4]).
As to `CC[C@H](C)[C@@H]1NC(=O)[C@H](C)NC(=O)[C@H](C(C)C)NC(=O)CNC(=O)[C@@H]2CSSC[C@@H](C(=O)NCC(=O)N[C@@H](Cc3c[nH]cn3)C(=O)N[C@@H](Cc3ccccc3)C(=O)N[C@@H](CC(C)C)C(=O)N[C@@H](CC(N)=O)C(=O)N[C@@H](CO)C(=O)NCC(=O)N3CCC[C@H]3C(=O)N[C@@H](CC(N)=O)C(=O)N[C@H](C(=O)N[C@@H](CO)C(=O)N3CCC[C@H]3C(=O)N[C@@H](Cc3ccc(O)cc3)C(=O)N[C@H](C(=O)N[C@@H](CO)C(=O)N[C@H](C(=O)O)[C@@H](C)O)C(C)C)[C@@H](C)CC)NC(=O)CNC(=O)[C@H](Cc3c[nH]c4ccccc34)NC(=O)[C@H](CCCNC(=N)N)NC(=O)CNC(=O)[C@H](CSSC[C@H](NC(=O)[C@@H](N)[C@@H](C)O)C(=O)N3CCC[C@H]3C(=O)N[C@@H](CCC(=O)O)C(=O)NCC(=O)N[C@@H](Cc3c[nH]c4ccccc34)C(=O)N[C@@H](CO)C(=O)N[C@@H](CCC(=O)O)C(=O)N2)NC(=O)[C@H](CCC(=O)O)NC(=O)[C@H](Cc2ccc(O)cc2)NC(=O)CNC(=O)[C@H](C)NC1=O` [K92chemFE Y14A] (H-TCPEGWSECGVAIAGYECGRWGCGHFLNSGPNISPYVST-OH; disulfide 2-18, 9-23; N-terminus assumed), in experiment [3] (n = 3 experiments), the mean stoichiometric ratio came out at 0.41. Further, in experiment [3] (setting [6]), the koff worked out at 0.0001 s⁻¹ and the kon was determined as 27200 M⁻¹ s⁻¹.
In the same order, the values of `CC[C@H](C)[C@@H]1NC(=O)[C@H](C)NC(=O)[C@H](C(C)C)NC(=O)CNC(=O)[C@@H]2CSSC[C@@H](C(=O)NCC(=O)N[C@@H](Cc3c[nH]cn3)C(=O)N[C@@H](Cc3ccccc3)C(=O)N[C@@H](CC(C)C)C(=O)N[C@@H](CC(N)=O)C(=O)N[C@@H](CO)C(=O)NCC(=O)N3CCC[C@H]3C(=O)N[C@@H](CC(N)=O)C(=O)N[C@H](C(=O)N[C@@H](CO)C(=O)N3CCC[C@H]3C(=O)N[C@@H](Cc3ccc(O)cc3)C(=O)N[C@H](C(=O)N[C@@H](CO)C(=O)N[C@H](C(=O)O)[C@@H](C)O)C(C)C)[C@@H](C)CC)NC(=O)CNC(=O)[C@H](Cc3c[nH]c4ccccc34)NC(=O)[C@H](CCCNC(=N)N)NC(=O)CNC(=O)[C@H](CSSC[C@H](NC(=O)[C@@H](N)[C@@H](C)O)C(=O)N3CCC[C@H]3C(=O)N[C@@H](CCC(=O)O)C(=O)NCC(=O)N[C@@H](Cc3c[nH]c4ccccc34)C(=O)N[C@@H](CO)C(=O)N[C@@H](CCC(=O)O)C(=O)N2)NC(=O)[C@H](CCC(=O)O)NC(=O)[C@H](C)NC(=O)CNC(=O)[C@H](Cc2ccc(O)cc2)NC1=O` [K92chemFE Y16A] (H-TCPEGWSECGVAIYGAECGRWGCGHFLNSGPNISPYVST-OH; disulfide 2-18, 9-23; N-terminus assumed) are 0.66, 0.786 s⁻¹ and 1.56e+07 M⁻¹ s⁻¹.
“K92 chemFE W21H: W21H mutant of K92chemFE (TCPEGWSECGVAIYGYECGRHGCGHFLNSGPNISPYVST)”: in experiment [3] (chemical knob domains and variants, result in words), the “binding to human C5” value was “much-lower loss of affinity”.
Regarding `CC[C@H](C)[C@@H]1NC(=O)[C@H](C)NC(=O)[C@H](C(C)C)NC(=O)CNC(=O)[C@@H]2CSSC[C@@H](C(=O)NCC(=O)N[C@@H](Cc3c[nH]cn3)C(=O)N[C@@H](Cc3ccccc3)C(=O)N[C@@H](CC(C)C)C(=O)N[C@@H](CC(N)=O)C(=O)N[C@@H](CO)C(=O)NCC(=O)N3CCC[C@H]3C(=O)N[C@@H](CC(N)=O)C(=O)N[C@H](C(=O)N[C@@H](CO)C(=O)N3CCC[C@H]3C(=O)N[C@@H](Cc3ccc(O)cc3)C(=O)N[C@H](C(=O)N[C@@H](CO)C(=O)N[C@H](C(=O)O)[C@@H](C)O)C(C)C)[C@@H](C)CC)NC(=O)CNC(=O)[C@H](Cc3c[nH]cn3)NC(=O)[C@H](CCCNC(=N)N)NC(=O)CNC(=O)[C@H](CSSC[C@H](NC(=O)[C@@H](N)[C@@H](C)O)C(=O)N3CCC[C@H]3C(=O)N[C@@H](CCC(=O)O)C(=O)NCC(=O)N[C@@H](Cc3c[nH]c4ccccc34)C(=O)N[C@@H](CO)C(=O)N[C@@H](CCC(=O)O)C(=O)N2)NC(=O)[C@H](CCC(=O)O)NC(=O)[C@H](Cc2ccc(O)cc2)NC(=O)CNC(=O)[C@H](Cc2ccc(O)cc2)NC1=O` [K92chemFE W21H] (H-TCPEGWSECGVAIYGYECGRHGCGHFLNSGPNISPYVST-OH; disulfide 2-18, 9-23; N-terminus assumed), the mean stoichiometric ratio in experiment [3] (n = 3 experiments) came out at 0.69. Also, in experiment [3], the off-rate constant (koff) came out at 0.000612 s⁻¹ and the kon is 425000 M⁻¹ s⁻¹.

Broadly, the koff is a measure of how fast the partners let go of each other. Broadly, the kon is the rate constant with which the complex forms.
